Test results published in patent US6673571B2, “Polypeptides having aminopeptidase activity and nucleic acids encoding same” (Novozymes Biotech, Inc., priority 1997, dated 2004).

Assays:
[1] = system: gelatin; assay: Degree of hydrolysis (DH) in gelatin hydrolysis, OPA method; format: biochemical; settings: 50° C., 18 hours
Experimental: The aminopeptidase I was added in increased dosage to either a low or a high background of FLAVOURZYME™ and ALCALASE® as performed in Example 7.
Hydrolysis was carried out in 200 μl reactions in Eppendorf tubes. The substrate gelatin (Merck) was dissolved in distilled water at 85° C. for 5 minutes. After cooling to 50° C., the pH was adjusted to 6.5. The final gelatin concentration was adjusted to 2% after the addition of enzymes. The substrate concentration in each reaction was calculated to be 4 mg.
The hydrolysis reactions were performed at 50° C. for 18 hours. Enzymes were inactivated at 85° C. for 5 minutes followed by centrifugation. DH was calculated on the basis of the total protein content of hydrolysate using the OPA method.

[2] = Substrate specificity: initial rates of hydrolysis of para-nitroanilides; format: biochemical; settings: Gly-Phe-pNA versus Ala-Ala-pNA
[3] = system: soy protein; assay: Degree of hydrolysis (DH) in soy protein hydrolysis, OPA method; format: biochemical, soy bean; settings: for DH: 50° C., 18 hours
Experimental: The degree of hydrolysis (DH) of the soy protein was determined as follows. The DH, defined as described in by Adler-Nissen (1986, Enzymic Hydrolysis of Food Proteins, Elsevier Applied Science Publishers), was determined by reaction of the supernatant with OPA (ortho-phthaldialdehyde, Sigma Chemical Co., St. Louis, Mo.) essentially as described by Church et al., 1983, Journal of Dairy Science 66: 1219-1227 with correction factors as determined by Adler-Nissen, 1979, Agricultural and Food Chemistry 27: 1256-1262.
The aminopeptidase I was added in increasing dosage to either a low-background (1.5% of the substrate protein) or a high background (6% of the substrate protein) of FLAVOURZYME 1000L™ and a dosage of ALCALASE 2.4L® of 1.5% of the substrate protein. The experiments were carried out as described below:
(§1) Hydrolysis was carried out on a 10 ml scale at 50° C. for 18 hours. The initial pH was 7 with no pH readjustment during hydrolysis. Inactivation of the enzyme was carried out at 85° C. for 3 minutes in a water bath. The substrate concentration was 2% protein from soy bean meal. The substrate was heat treated in a water bath at 85° C. for 3 minutes. The enzymes used with FLAVOURZYME 1000L™ and ALCALASE 2.4L® described above were crude Sphingomonas capsulata aminopeptidase I powder (see Example 1) and the purified Sphingomonas capsulata aminopeptidase I described in Example 4.

[4] = system: soy protein; assay: Release of free amino acids (FAA) in soy protein hydrolysis; format: biochemical, soy bean
Experimental: as §1
Hyp, methioninsulphonic acid, and Trp were not included in the Table due to very fluctuating and uncertain results.

[5] = 1.5% FLAVOURZYME +67 kDa AP versus 6.0% FLAVOURZYME

B1: Sphingomonas capsulata aminopeptidase I: purified aminopeptidase of 67 kDa from Sphingomonas capsulata IFO 12533; deduced amino acid sequence SEQ ID NO:2 (protein)
chain: MRKTPQGIGLLSALSTSTLALATLILAQPALAQVQPASNSRPMAVPIAHGVPDAQDVPYPGTIGLQIDATDLATGAFRVVETVPVAADAKELILQLPAWLPGEHGNRGPVAELAGITFEAKGQKLAWTRDPVEVNAFHIPLPAGTSEVVARFIHTSPLRDSEGRITVTREMLNVQWEKMSLYPAGHYVRQIKVRPTVSFPQGWTVFTALDGKTQSGAGNTVTWAETDYETLVDSPIFAGLYAARHDLGHNVYFDLVADKPELLAIKPENLAAYRNLADEAVGAFGARHFDHYDFLLALTDRMGSIGLEHHRSSENQQEPKSLTDWAAYDWDRNVIAHEFSHSWDGKYRRSAKLWTPDYRQPMQDNLLWVYEGQTQFWGLVLAARSGVQSKDVVLGSLANYAGTFTQTAGRDWRSVEDTTMDPIFAARKPKPYSSLTRNEDYYTEGALVWLEADQIIRDGTGGKKGLDDFAKAFFGVRDGDWGVLTYEFDDVVKTLNGVYPYDWATFLKTRLQTPGQPVPLGGIERGGYKLEFKDEPNPYDKARMADAKVLSLFNSLGVTLDKDGKVTASRWDGPAFKAGLVSGMQVMAVNGDAYDADKLKGAITNAKTGNPGAGRPIELLVKRDDRFVTLPITYADGLRWPWLVRTAPGTAPTGLDKLLAPHASKLPVGKAAK
[1]; 0.2 U/4 mg gelatin added to low FLAVOURZYME background (2%) + 1% ALCALASE, from DH 38%
  DH: 61%
[1]; added to 7% FLAVOURZYME + 1% ALCALASE
  DH: 61%
[2]
  hydrolysis of dipeptide substrates: hydrolysed Gly-Phe-pNA more quickly than Ala-Ala-pNA
[3]; 1.5% FLAVOURZYME +67 kDa AP
  % Relative increase in DH: 34.8%
[3]; [5]
  % Relative increase in DH: −2.2%
[3]; 6.0% FLAVOURZYME +67 kDa AP
  % Relative increase in DH: 14.2%
[3]; added to high dosage (6%) FLAVOURZYME + 1.5% ALCALASE, from DH 61%
  DH: 71%
[3]; added to low dosage (1.5%) FLAVOURZYME + 1.5% ALCALASE, from DH 44%
  DH: 61-62%
[3]; high dosage of FLAVOURZYME, (71−61)/(77−61)×100%
  share of the DH increasing effect of the crude enzyme: 63%
[3]; low dosage of FLAVOURZYME, (62−44)/(72−44)×100%
  share of the DH increasing effect of the crude enzyme: 64%
[3]; relative to 1.5% + 0.5% extra FLAVOURZYME, (62−48)/(72−48)×100%
  effect of adding aminopeptidase I as % of the effect of the crude enzyme: 58%
[3]; relative to 6% + 1% extra FLAVOURZYME, (71−63)/(77−63)×100%
  effect of aminopeptidase I as % of the effect of the crude enzyme: 57%
[4]; 1.5% FLAVOURZYME +67 kDa AP
  % Relative increase in FAA: Ala: 130.3%
  % Relative increase in FAA: Arg: 37.4%
  % Relative increase in FAA: Asn: 32.3%
  % Relative increase in FAA: Asp: 164.5%
  % Relative increase in FAA: Cys: 12.6%
  % Relative increase in FAA: Gln: 138.9%
  % Relative increase in FAA: Glu: 145.9%
  % Relative increase in FAA: Gly: 305.7%
  % Relative increase in FAA: His: 30.3%
  % Relative increase in FAA: Ile: 48.7%
  % Relative increase in FAA: Leu: 35.2%
  % Relative increase in FAA: Lys: 62.4%
  % Relative increase in FAA: Met: −20.0%
  % Relative increase in FAA: Phe: 41.8%
  % Relative increase in FAA: Pro: 32.4%
  % Relative increase in FAA: Ser: 69.3%
  % Relative increase in FAA: Thr: 34.7%
  % Relative increase in FAA: Tyr: 47.6%
  % Relative increase in FAA: Val: 44.0%
  % Relative increase in FAA: total: 64.5%
[4]; [5]
  % Relative increase in FAA: Ala: 27.3%
  % Relative increase in FAA: Arg: −2.9%
  % Relative increase in FAA: Asn: −15.2%
  % Relative increase in FAA: Asp: 24.2%
  % Relative increase in FAA: Cys: 6.3%
  % Relative increase in FAA: Gln: 9.9%
  % Relative increase in FAA: Glu: 28.7%
  % Relative increase in FAA: Gly: 90.6%
  % Relative increase in FAA: His: −6.8%
  % Relative increase in FAA: Ile: −21.0%
  % Relative increase in FAA: Leu: −9.1%
  % Relative increase in FAA: Lys: −1.4%
  % Relative increase in FAA: Met: −46.7%
  % Relative increase in FAA: Phe: −4.5%
  % Relative increase in FAA: Pro: −39.7%
  % Relative increase in FAA: Ser: 12.5%
  % Relative increase in FAA: Thr: −18.3%
  % Relative increase in FAA: Tyr: −6.9%
  % Relative increase in FAA: Val: −17.7%
  % Relative increase in FAA: total: 0.0%
[4]; 6.0% FLAVOURZYME +67 kDa AP
  % Relative increase in FAA: Ala: 36.5%
  % Relative increase in FAA: Arg: −31.4%
  % Relative increase in FAA: Asn: 7.6%
  % Relative increase in FAA: Asp: 24.8%
  % Relative increase in FAA: Cys: 9.5%
  % Relative increase in FAA: Gln: 28.1%
  % Relative increase in FAA: Glu: 31.3%
  % Relative increase in FAA: Gly: 92.9%
  % Relative increase in FAA: His: 7.5%
  % Relative increase in FAA: Ile: 7.2%
  % Relative increase in FAA: Leu: 5.2%
  % Relative increase in FAA: Lys: 13.8%
  % Relative increase in FAA: Met: 21.1%
  % Relative increase in FAA: Phe: 7.2%
  % Relative increase in FAA: Pro: −11.5%
  % Relative increase in FAA: Ser: 41.7%
  % Relative increase in FAA: Thr: 2.4%
  % Relative increase in FAA: Tyr: 8.5%
  % Relative increase in FAA: Val: 6.3%
  % Relative increase in FAA: total: 10.3%
